In one test the test system is VZV antigen. As to the kind of experiment: VZV antigen-specific IgG titer (ELISA) after immunization. Type of test: in vivo, C57BL/6 mice. Conditions: Experimental Example 10, FIG. 12; gE alone versus gE together with gI or IE63 antigen. The protocol:
(§1) Since humans have a history of chickenpox infection, in order to mimic chickenpox infection in mice, live attenuated vaccine (LAV, 3000 pfu) was subcutaneously injected once to female C57BL/6 mice to perform primary immunization (LAV priming). After 28 days from the LAV priming (Day 0), various VZV vaccine compositions with or without VZV protein immunogen or adjuvant were administered by intramuscular injection to perform secondary immunization. […]
After performing the primary immunization and the secondary immunization, ELISA (enzyme-linked immunosorbant assay) was carried out for measuring VZV antigen-specific IgG titer. […] The HRP reaction was stopped by adding ELISA stop solution and optical density (OD) was measured using a spectrometer at a wavelength of 450 nm.
Various VZV antigen-specific IgG titers depending on the use of SLA-SE were determined in the same manner as in Experimental Example 2-1 except that any one of gE, gI, IE63, gB, gC, and gL was used as an antigen in the secondary immunization and SLA-SE was used as an adjuvant, and the results are summarized in FIGS. 8 and 9. […]
On the technique in general: ELISA stands for enzyme-linked immunosorbent assay.

Another test concerns entire VZV (VZV lysate). In words: IFN-γ ELISPOT assay, leukocyte stimulation with VZV lysate. It is filed as in vivo, C57BL/6 mice. The following applies: Experimental Example 10, FIG. 12; gE alone versus gE together with gI or IE63 antigen. Here is the method:
as §1
After performing the primary immunization and the secondary immunization, mouse IFN-γ ELISPOT (enzyme-linked immunospot) assay was carried out to confirm VZV antigen-specific cell-mediated immune response (CMI). […] The number of the resulting spots were counted with a device.
The gE protein, gE OLP, or VZV lysate-specific cell-mediated immune responses were measured according to the method of Experimental Example 2-2 (IFN-γ ELISPOT assay), and the experimental results are summarized in FIGS. 3, 4, and 5. […]
The gE protein, gE OLP, or VZV lysate-specific cell-mediated immune responses were measured according to the method of Experimental Example 2-2 (IFN-γ ELISPOT assay), and the experimental results are summarized in FIGS. 15, 16, and 17.

B1: gE antigen: VZV glycoprotein E of SEQ ID NO: 1 (protein)
chain: MGTVNKPVVGVLMGFGIITGTLRITNPVRASVLRYDDFHTDEDKLDTNSVYEPYYHSDHAESSWVNRGESSRKAYDHNSPYIWPRNDYDGFLENAHEHHGVYNQGRGIDSGERLMQPTQMSAQEDLGDDTGIHVIPTLNGDDRHKIVNVDQRQYGDVFKGDLNPKPQGQRLIEVSVEENHPFTLRAPIQRIYGVRYTETWSFLPSLTCTGDAAPAIQHICLKHTTCFQDVVVDVDCAENTKEDQLAEISYRFQGKKEADQPWIVVNTSTLFDELELDPPEIEPGVLKVLRTEKQYLGVYIWNMRGSDGTSTYATFLVTWKGDEKTRNPTPAVTPQPRGAEFHMWNYHSHVFSVGDTFSLAMHLQYKIHEAPFDLLLEWLYVPIDPTCQPMRLYSTCLYHPNAPQCLSHMNSGCTFTSPHLAQRVASTVYQNCEHADNYTAYCLGISHMEPSFGLILHDGGTTLKFVDTPESLSGLYVFVVYFNGHVEAVAYTVVSTVDHFVNAIEERGFPPTAGQPPATTKPKEITPVNPGTSPLLR
modifications: Human herpesvirus 3
As to B1, the VZV-specific antibody response entry with VZV antigen is “not significantly different”. In addition, in the test on entire VZV (VZV lysate), the “VZV-specific T cell response” value is on record as “not significantly different”.

For the origin of these results see patent US10940198B2, “Herpes zoster vaccine composition” (MOGAM INSTITUTE FOR BIOMEDICAL RESEARCH, priority 2016, dated 2021).
